Measurements from patent US20190091326A1.

How the values were obtained:
[1] = biological target: MN V1/V2 scaffold, wildtype, gD-tagged, produced in normal 293 HEK cells (herpes simplex virus 1; HIV-1 isolate MN) (UniProt Q69091); test: ELISA; table row MN V1/V2 wt, column 293
[2] = biological target: ZM233 V1/V2 scaffold, wildtype, gD-tagged, produced in GnTI- 293 HEK cells (herpes simplex virus 1; HIV-1 isolate ZM233); test: ELISA; table row ZM233 V1/V2 wt, GnTI-
[3] = biological target: 108060 I169K/E172V/T161M/N156I/S164G/D167G V1/V2 scaffold, gD-tagged, produced in GnTI- 293 HEK cells (herpes simplex virus 1; HIV-1 isolate 108060); test: ELISA; table row 108060 V1/V2.eng1*, GnTI-
[4] = biological target: MN V1/V2 scaffold, mutant, Strep-tag/6x Histidine-tag, expressed in 293F cells (HIV-1 isolate MN) (UniProt P05877); test: SPR (Biacore 3000), PG9 captured by anti-human Fc, scaffold flowed, 1:1 Langmuir fit
[5] = biological target: ZM233 V1/V2 scaffold, engineered, Strep-tag/6x Histidine-tag, expressed in normal 293 cells (HIV-1 isolate ZM233); test: as above
[6] = biological target: A244 V1/V2 scaffold, engineered, Strep-tag/6x Histidine-tag, produced in normal 293 cells (HIV-1 isolate A244); test: as above
[7] = biological target: 108060 V1/V2 scaffold, mutant, Strep-tag/6x Histidine-tag, expressed in 293F cells (HIV-1 isolate 108060); test: as above
ZM233 mutant, Mock = test: ELISA of mock- or Endo H-digested scaffold, PG9 titrated, absorbance 490 nm
MN mutant, Mock = test: as above
ZM197 V1/V2 wt (293) = test: ELISA; table row ZM197 V1/V2 wt, column 293
[8] = biological target: 108060-I169K V1/V2 scaffold, gD-tagged, produced in normal 293 HEK cells (herpes simplex virus 1; HIV-1 isolate 108060); test: ELISA; table row 108060 V1/V2 I169K, column 293
CAP.45 V1/V2 wt (293) = test: ELISA; table row CAP.45 V1/V2 wt, column 293
[9] = biological target: JRFL-E168K V1/V2 scaffold, engineered, gD-tagged, produced in normal 293 HEK cells (herpes simplex virus 1; HIV-1 isolate JRFL); test: ELISA; table row JRFL-E168K V1/V2.eng1*, column 293
[10] = biological target: MN V1/V2 scaffold, engineered, gD-tagged, produced in normal 293 HEK cells (herpes simplex virus 1; HIV-1 isolate MN); test: ELISA; table row MN V1/V2.eng1*, column 293
[11] = biological target: JRFL-E168K V1/V2 scaffold, wildtype, gD-tagged, produced in normal 293 HEK cells (herpes simplex virus 1; HIV-1 isolate JRFL) (UniProt Q69091); test: ELISA; table row JRFL-E168K V1/V2 wt, column 293
[12] = biological target: JRFL-E168K V1/V2 scaffold, wildtype, gD-tagged, produced in GnTI- 293 HEK cells (herpes simplex virus 1; HIV-1 isolate JRFL) (UniProt Q69091); test: ELISA; table row JRFL-E168K V1/V2 wt, GnTI-
[13] = biological target: ZM109 V1/V2 scaffold, wildtype, gD-tagged, produced in GnTI- 293 cells (herpes simplex virus 1; HIV-1 isolate ZM109); test: ELISA; table row ZM109 V1/V2 wt, GnTI-
Bal.01 V1/V2 wt (GnTI-) = test: ELISA; table row Bal.01 V1/V2 wt, GnTI-
A244 V1/V2.eng1 (GnTI-) = test: ELISA; table row A244 V1/V2.eng1*, GnTI-
[14] = biological target: A244 V1/V2 scaffold, engineered, gD-tagged, produced in normal 293 HEK cells (herpes simplex virus 1; HIV-1 isolate A244) (UniProt Q69091); test: ELISA; table row A244 V1/V2.eng1*, column 293
[15] = biological target: ZM233 V1/V2 scaffold, wildtype, gD-tagged, produced in normal 293 HEK cells (herpes simplex virus 1; HIV-1 isolate ZM233); test: ELISA; table row ZM233 V1/V2 wt, column 293
[16] = biological target: 108060-I169K V1/V2 scaffold, gD-tagged, produced in GnTI- 293 HEK cells (herpes simplex virus 1; HIV-1 isolate 108060); test: ELISA; table row 108060 V1/V2 I169K, GnTI-
[17] = biological target: 108060 I169K/E172V V1/V2 scaffold, gD-tagged, produced in normal 293 HEK cells (herpes simplex virus 1; HIV-1 isolate 108060); test: ELISA; table row 108060 V1/V2 I169K/E172V, column 293
[18] = biological target: JRFL-E168K V1/V2 scaffold, engineered, gD-tagged, produced in GnTI- 293 HEK cells (herpes simplex virus 1; HIV-1 isolate JRFL); test: ELISA; table row JRFL-E168K V1/V2.eng1*, GnTI-
[19] = biological target: MN V1/V2 scaffold, engineered, gD-tagged, produced in GnTI- 293 HEK cells (herpes simplex virus 1; HIV-1 isolate MN); test: ELISA; table row MN V1/V2.eng1*, GnTI-
[20] = biological target: ZM233 V1/V2 scaffold, engineered, gD-tagged, produced in GnTI- 293 HEK cells (herpes simplex virus 1; HIV-1 isolate ZM233); test: ELISA; table row ZM233 V1/V2.eng1*, GnTI-

PG9 monoclonal antibody showed an EC50 [1] of over 10 µg/mL, an EC50 [2] of 9.51 ng/mL and an EC50 [3] of 6.85 ng/mL. The Kd [4] was 118 nM, the Kd [5] was 33 nM and the Kd [6] was 49 nM. For the same substance, the Kd [7] was 74 nM, the EC50 (read off the curve) (ZM233 mutant, Mock) was 30 ng/mL and the EC50 (read off the curve) (MN mutant, Mock) was 100 ng/mL. The EC50 (ZM197 V1/V2 wt (293)) was 2.74 µg/mL, the EC50 [8] was over 10 µg/mL and the EC50 (CAP.45 V1/V2 wt (293)) was 0.312 µg/mL. The EC50 [9] was 0.0473 µg/mL, the EC50 [10] was 0.0274 µg/mL and the EC50 [11] was over 10 µg/mL. It also gave an EC50 [12] of over 10 µg/mL, an EC50 [13] of 0.0143 µg/mL and an EC50 (Bal.01 V1/V2 wt (GnTI-)) of 0.0802 µg/mL. For the same substance, the EC50 (A244 V1/V2.eng1 (GnTI-)) was 4.06 ng/mL, the EC50 [14] was 0.099 µg/mL and the EC50 [15] was 0.077 µg/mL. It also gave an EC50 [16] of 0.679 µg/mL, an EC50 [17] of over 10 µg/mL and an EC50 [18] of 0.013 µg/mL. The EC50 [19] was 7.96 ng/mL and the EC50 [20] was 8.5 ng/mL.
